This series concerns the molecule itself. In words: AUC.

B1: EC1–2 of mouse E-cadherin (domain or fragment)
chain: DWVIPPISCPENEKGEFPKNLVQIKSNRDKETKVFYSITGQGADKPPVGVFIIERETGWLKVTQPLDREAIAKYILYSHAVSSNGEAVEDPMEIVITVTDQNDNRPEFTQEVFEGSVAEGAVPGTSVMKVSATDADDDVNTYNAAIAYTIVSQDPELPHKNMFTVNRDTGVISVLTSGLDRESYPTYTLVVQAADLQGEGLSTTAKAVITVKD
Regarding B1, the Kd – broadly, the equilibrium constant for the complex coming apart – is ~175 µM.
